Source: patent US20190161555A1 (ALLIGATOR BIOSCIENCE, published 2019)

How the values were obtained:
[1] = target: T1, human/mouse 5T4 chimera E4; test: flow cytometry, cells with 5T4 chimera; % positive cells over that of the best clone
T1 construct: on stably transfected CHO cells
Protocol: (§1) Epitope mapping was performed by investigation of loss of binding by the antibodies using a panel of human/mouse chimeric 5T4 constructs by flow cytometry. […] Two strategies were used for the epitope mapping as illustrated in FIG. 5. In one approach, seven human/mouse 5T4 chimeras were constructed based on dividing 5T4 into seven different domains (FIG. 5). By replacing each domain with the corresponding mouse sequence seven human/mouse 7 5T4 human/mouse chimeras were generated. The chimeras were generated using the human protein 5T4 sequence NP_006661.1 (reference mRNA sequence NM_006670.4) and the corresponding mouse sequence NP_035757.2 (reference mRNA sequence NM_011627.4). The human/mouse chimeric DNA constructs, as well as human and mouse wild-type 5T4, were cloned into pcDNA3.1 expression vectors. […] In the other approach, cells transfected with a human/mouse 5T4 chimera (Woods et al., 2002) was used, in which mouse sequence in amino acid 173-420 replaced the human sequence (FIG. 5). As controls human 5T4 and mouse 5T4-transfected cells were used.
(§2) For flow cytometric analysis, cells were stained with different 5T4 antibodies diluted in FACS buffer (PBS, 0.5% BSA). […] Samples were analysed by FACSverse (BD Biosciences, Heidelberg, Germany) and % positive cells were determined. To compensate for variations in % 5T4 positive cells in the various transfected populations, binding levels were normalized within each chimera by dividing % positive cells for each clone with % positive cells for the clones resulting in the highest % positive cells (% pos cellsclonX/% positive cellsₘₐₓ). A normalized value≤0.75 was defined as mAb binding being dependent on the replaced region, whereas a normalized value≤0.25 was defined as complete dependence.

[2] = target: T2, human/mouse 5T4 chimera E2; test: as above
T2 construct: on stably transfected CHO cells
Protocol: as §1, §2

[3] = target: T3, human/mouse 5T4 chimera E3; test: as above
T3 construct: on stably transfected CHO cells
Protocol: as §1, §2

[4] = target: T4, human/mouse 5T4 chimera E6; test: as above
T4 construct: on stably transfected CHO cells
Protocol: as §1, §2

[5] = target: T5, human/mouse 5T4 chimera E1; test: as above
T5 construct: on stably transfected CHO cells
Protocol: as §1, §2

[6] = target: T6, human/mouse 5T4 chimera E7; test: as above
T6 construct: on stably transfected CHO cells
Protocol: as §1, §2

[7] = target: T7, human/mouse 5T4 chimera E5; test: as above
T7 construct: on stably transfected CHO cells
Protocol: as §1, §2

cynomolgus 5T4 [8] = target: T8, cynomolgus 5T4 (Macaca mulatta (cynomolgus)); test: flow cytometry, CHO cells with cynomolgus 5T4 against CHO cells with human 5T4
T8 construct: whole, on cells; stably transfected CHO cells; also called cyno5T4; cy5T4
Protocol: (§3) The potency of 5T4 antibodies in binding to cynomolgus 5T4 was determined by flow cytometry. CHO cells were stably transfected with […] (cynomolgus) 5T4. […] Samples were analysed either on a FACSCalibur or a FACSverse (BD Biosciences, Heidelberg, Germany) and mean fluorescence intensity (MFI) determined. […] To compare the EC50 values between human and cynomolgus 5T4, the cy5T4/hu5T4 ratio was calculated from the experiment with the full dose-response.

[9] = target: T9, 5T4 (immobilised for SPR) (UniProt Q13641 32-355, limits assumed, biotinylated on the MASS-1 platform); test: SPR Biacore 3000, 5T4 amine-coupled, mAb injected, 1:1 Langmuir
T9 construct: also called biotinylated 5T4
T9 sequence (looked up): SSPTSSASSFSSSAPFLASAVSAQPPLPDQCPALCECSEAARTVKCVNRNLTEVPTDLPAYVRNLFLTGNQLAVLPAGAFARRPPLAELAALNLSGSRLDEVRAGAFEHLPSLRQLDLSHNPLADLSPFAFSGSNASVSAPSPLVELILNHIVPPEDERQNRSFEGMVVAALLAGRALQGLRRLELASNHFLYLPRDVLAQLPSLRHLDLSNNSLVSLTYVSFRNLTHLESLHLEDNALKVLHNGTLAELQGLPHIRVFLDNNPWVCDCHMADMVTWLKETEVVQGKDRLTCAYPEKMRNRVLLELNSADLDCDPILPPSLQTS
Protocol: Binding kinetics of the 5T4-specific mAbs have been studied using two different SPR-based platforms, the Biacore 3000 (GE Healthcare) and the MASS-1 platform (Sierra Sensors). Briefly, 5T4 was captured at the sensor chip surface either via direct amine coupling (Biacore platform) or using a streptavidin coated chip and biotinylated 5T4 (MASS-1 platform). The different 5T4-specific mAbs were then injected over the chip in increasing concentrations and the association and dissociation rates studied in real time. A 1:1 Langmuir model was used for curve fitting.

[10] = target: T10, human 5T4 on transfected cells (human, UniProt Q13641 32-420); test: flow cytometry, 5T4-transfected A9 cells
T10 construct: whole, on cells; for B16 and A9 cells only a 5T4 construct is named; also called 5T4-transfected B16 cells; B16-5T4
T10 sequence (looked up): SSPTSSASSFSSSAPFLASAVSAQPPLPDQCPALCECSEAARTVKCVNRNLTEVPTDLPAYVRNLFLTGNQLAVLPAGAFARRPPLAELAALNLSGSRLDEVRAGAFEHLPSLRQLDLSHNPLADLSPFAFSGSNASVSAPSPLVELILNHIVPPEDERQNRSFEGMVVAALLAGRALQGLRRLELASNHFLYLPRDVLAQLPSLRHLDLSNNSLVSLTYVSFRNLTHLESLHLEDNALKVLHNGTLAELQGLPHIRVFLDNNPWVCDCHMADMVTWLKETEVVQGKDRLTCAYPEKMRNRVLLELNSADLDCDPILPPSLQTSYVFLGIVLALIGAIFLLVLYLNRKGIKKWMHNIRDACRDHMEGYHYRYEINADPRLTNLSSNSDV
Protocol: (§4) Analysis of 5T4 mAb binding with flow cytometry was performed using 5T4-transfected cell lines and as negative control, mock transfected cells. Three different transfected cell lines used were used for this study; B16, A9 and CHO, transfected either with a 5T4 construct or with an empty vector control construct. Cells were stained with 5T4 antibodies diluted in FACS buffer (PBS, 0.5% BSA and 0.02% NaN₃). […] Samples were analysed either on a FACSCalibur or a FACSverse (BD Biosciences, Heidelberg, Germany) and mean fluorescence intensity (MFI) determined.

[11] = target: T10, human 5T4 on transfected cells; test: flow cytometry, 5T4-transfected B16 cells
Protocol: as §4

cynomolgus 5T4 [12] = target: T8, cynomolgus 5T4; test: flow cytometry, CHO cells transfected with cynomolgus 5T4
Protocol: as §3

5T4-Fc = target: T11, 5T4-Fc (human, UniProt Q13641 32-355, limits assumed); test: ELISA, plates coated with 5T4-Fc
T11 construct: obtained from Peter L. Stern, University of Manchester; also called h5T4-Fc; recombinant 5T4
T11 sequence (looked up): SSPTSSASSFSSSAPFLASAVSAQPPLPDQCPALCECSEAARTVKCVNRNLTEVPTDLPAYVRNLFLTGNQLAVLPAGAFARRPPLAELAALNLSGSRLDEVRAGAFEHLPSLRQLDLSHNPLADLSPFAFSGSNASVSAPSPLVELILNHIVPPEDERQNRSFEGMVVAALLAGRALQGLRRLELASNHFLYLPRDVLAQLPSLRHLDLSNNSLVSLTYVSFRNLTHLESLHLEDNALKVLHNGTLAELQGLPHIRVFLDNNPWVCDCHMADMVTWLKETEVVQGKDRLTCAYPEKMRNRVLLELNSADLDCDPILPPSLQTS
Protocol: ELISA was performed using a standard protocol. Plates (#655074, Greiner Bio-One GmbH, Germany) were pre-coated with 0.5 μg/ml 5T4-Fc (obtained from Peter L. Stern, University of Manchester) overnight. 5T4 antibodies were diluted from 6 to 1.5×10⁻³ μg/ml in 1:4 dilutions and added in duplicates of 50 μl to each well. Binding was detected with rabbit anti-h kappa L-chain-HRP (P0129, Dako Denmark) and the ELISA was developed with SuperSignal ELISA PICO Chemiluminescent substrate (Thermo Scientific Pierce, Rockford, Ill. USA) for 2-10 minutes and read in an automated microplate based multi-detection reader (FLUOstar OPTIMA, Netherlands).

mouse 5T4 = target: T12, mouse 5T4 (mouse, UniProt Q9Z0L0 32-426); test: flow cytometry, mouse 5T4-transfected cells
T12 construct: whole, on cells; also called murine 5T4
T12 sequence (looked up): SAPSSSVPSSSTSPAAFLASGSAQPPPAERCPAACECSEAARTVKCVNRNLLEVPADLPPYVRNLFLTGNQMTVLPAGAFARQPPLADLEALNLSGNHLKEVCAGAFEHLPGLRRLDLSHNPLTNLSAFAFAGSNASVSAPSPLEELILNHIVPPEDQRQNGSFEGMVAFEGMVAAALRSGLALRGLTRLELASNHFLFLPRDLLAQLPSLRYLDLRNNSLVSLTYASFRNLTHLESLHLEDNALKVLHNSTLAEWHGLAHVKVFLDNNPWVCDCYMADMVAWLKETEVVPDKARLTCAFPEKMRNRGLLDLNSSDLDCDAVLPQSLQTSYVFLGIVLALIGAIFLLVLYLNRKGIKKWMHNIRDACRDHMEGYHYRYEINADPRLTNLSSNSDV

B1: 1212/1213 (antibody, IgG1, V domains shown)
VH: EVQLLESGGGLVQPGGSLRLSCAASGFTFSSYAMSWVRQAPGKGLEWVSYISSYGGYTSYADSVKGRFTISRDNSKNTLYLQMNSLRAEDTAVYYCARYHSGVLDYWGQGTLVTVSS
VL: DIQMTQSPSSLSASVGDRVTITCRASQSISSYLNWYQQKPGKAPKLLIYAASSLQSGVPSRFSGSGSGTDFTLTISSLQPEDFATYYCQQYYYHYLLTFGQGTKLEIK
notes: 5T4 antibody
normalized % positive cells [1]: 1 | normalized % positive cells [2]: 0.9 | normalized % positive cells [3]: 0.93 | normalized % positive cells [4]: 0.03 | normalized % positive cells [5]: 0.89 | normalized % positive cells [6]: 0.88 | normalized % positive cells [7]: 0.84 | Ratio EC50cyno-5T4/h5T4 (cynomolgus 5T4 [8]): 140 ratio | kon [9]: 450000 M⁻¹ s⁻¹ | Normalized EC50 (to 1628) [10]: 0.4 ratio to 1628 | EC50 [11]: 1.4 nM | Normalized EC50 (to 1628) [11]: 1.1 ratio to 1628 | EC50 (cynomolgus 5T4 [12]): 30.7 nM | EC50 (5T4-Fc): 0.56 nM | binding result (mouse 5T4): no binding
